To fix the notation:
B1: parental mouse (KB001) Fab FASEBA, VL variant H94F (Fab, V domains shown)
VH: EVQLKQSGPGLVAPSQSLSITCTVSGFSLSIYSVHWVRQPPGKGLEWLGMIWGGGSSDYNSALKSRLSISKDNSKSQVFLKMNSLQTDDTAMYYCARNGNFYAMDYWGQGTSVTVSS
VL: QIVLTQSPAIMSASLGERVTMTCTASSSVSSSFLHWYQQKPGSSPQLWIYSTSNLASGVPARFSGSGSGTSYSLTISSMEAEDAATYYCHQYHFSPYIYTFGGGTKLEIK
B2: parental mouse (KB001) Fab FASEBA, VL variant S95N (Fab, V domains shown)
VH: B1 VH
VL: B1 VL with F94H, S95N
B3: parental mouse (KB001) Fab FASEBA, VL variant Y97H (Fab, V domains shown)
VH: B1 VH
VL: B1 VL with F94H, Y97H
B4: parental mouse (KB001) Fab FASEBA, VL variant S95H (Fab, V domains shown)
VH: B1 VH
VL: B1 VL with F94H, S95H
B5: parental mouse (KB001) Fab FASEBA, VL variant I98M (Fab, V domains shown)
VH: B1 VH
VL: B1 VL with F94H, I98M
B6: parental mouse (KB001) Fab FASEBA, VL variant T100V (Fab, V domains shown)
VH: B1 VH
VL: B1 VL with F94H, T100V
B7: parental mouse (KB001) Fab FASEBA, VL variant S95C (Fab, V domains shown)
VH: B1 VH
VL: B1 VL with F94H, S95C
B8: parental mouse (KB001) Fab FASEBA, VL variant S95F (Fab, V domains shown)
VH: B1 VH
VL: B1 VL with F94H, S95F
B9: parental mouse (KB001) Fab FASEBA, VL variant S95Y (Fab, V domains shown)
VH: B1 VH
VL: B1 VL with F94H, S95Y
B10: parental mouse (KB001) Fab FASEBA, VL variant S95Q (Fab, V domains shown)
VH: B1 VH
VL: B1 VL with F94H, S95Q
B11: parental mouse (KB001) Fab FASEBA, VL variant Y97S (Fab, V domains shown)
VH: B1 VH
VL: B1 VL with F94H, Y97S
B12: parental mouse (KB001) Fab FASEBA, VL variant T100I (Fab, V domains shown)
VH: B1 VH
VL: B1 VL with F94H, T100I
B13: parental mouse (KB001) Fab FASEBA, VL variant Y97V (Fab, V domains shown)
VH: B1 VH
VL: B1 VL with F94H, Y97V
B14: parental mouse (KB001) Fab FASEBA, VL variant Y97R (Fab, V domains shown)
VH: B1 VH
VL: B1 VL with F94H, Y97R
B15: parental mouse (KB001) Fab FASEBA, VL variant S95E (Fab, V domains shown)
VH: B1 VH
VL: B1 VL with F94H, S95E
B16: parental mouse (KB001) Fab FASEBA, VL variant Y97Q (Fab, V domains shown)
VH: B1 VH
VL: B1 VL with F94H, Y97Q
B17: parental mouse (KB001) Fab FASEBA, VL variant I98L (Fab, V domains shown)
VH: B1 VH
VL: B1 VL with F94H, I98L
B18: parental mouse (KB001) Fab FASEBA (Fab, V domains shown)
VH: B1 VH
VL: B1 VL with F94H
B19: parental mouse (KB001) Fab FASEBA, VL variant S95I (Fab, V domains shown)
VH: B1 VH
VL: B1 VL with F94H, S95I
B20: parental mouse (KB001) Fab FASEBA, VL variant I98V (Fab, V domains shown)
VH: B1 VH
VL: B1 VL with F94H, I98V
B21: parental mouse (KB001) Fab FASEBA, VL variant T100P (Fab, V domains shown)
VH: B1 VH
VL: B1 VL with F94H, T100P
B22: parental mouse (KB001) Fab FASEBA, VL variant Y97K (Fab, V domains shown)
VH: B1 VH
VL: B1 VL with F94H, Y97K
B23: parental mouse (KB001) Fab FASEBA, VL variant Y97I (Fab, V domains shown)
VH: B1 VH
VL: B1 VL with F94H, Y97I
B24: parental mouse (KB001) Fab FASEBA, VL variant S95T (Fab, V domains shown)
VH: B1 VH
VL: B1 VL with F94H, S95T
B25: parental mouse (KB001) Fab FASEBA, VL variant S95W (Fab, V domains shown)
VH: B1 VH
VL: B1 VL with F94H, S95W
B26: parental mouse (KB001) Fab FASEBA, VL variant Y97L (Fab, V domains shown)
VH: B1 VH
VL: B1 VL with F94H, Y97L
B27: parental mouse (KB001) Fab FASEBA, VL variant S95A (Fab, V domains shown)
VH: B1 VH
VL: B1 VL with F94H, S95A
B28: parental mouse (KB001) Fab FASEBA, VL variant I98R (Fab, V domains shown)
VH: B1 VH
VL: B1 VL with F94H, I98R
B29: parental mouse (KB001) Fab FASEBA, VL variant Y97F (Fab, V domains shown)
VH: B1 VH
VL: B1 VL with F94H, Y97F
B30: KB001 parental mouse Fab VH variant K64M (Fab, V domains shown)
VH: B1 VH with K64M
VL: B1 VL with F94H
B31: KB001 parental mouse Fab VH variant K64D (Fab, V domains shown)
VH: B1 VH with K64D
VL: B1 VL with F94H
B32: KB001 parental mouse Fab VH variant K64Q (Fab, V domains shown)
VH: B1 VH with K64Q
VL: B1 VL with F94H
B33: KB001 parental mouse Fab VH variant K64E (Fab, V domains shown)
VH: B1 VH with K64E
VL: B1 VL with F94H
B34: KB001 parental mouse Fab VH variant K64G (Fab, V domains shown)
VH: B1 VH with K64G
VL: B1 VL with F94H
B35: KB001 parental mouse Fab VH variant K64H (Fab, V domains shown)
VH: B1 VH with K64H
VL: B1 VL with F94H
B36: KB001 parental mouse Fab VH variant K64L (Fab, V domains shown)
VH: B1 VH with K64L
VL: B1 VL with F94H
B37: KB001 parental mouse Fab VH variant S65H (Fab, V domains shown)
VH: B1 VH with S65H
VL: B1 VL with F94H

For 37 molecules, OD450nm and Ratio OD(Variant)/OD(WT) results are on record in patent US20230365662A1.

Substitutions are numbered along the chain they refer to. Names and notes keep the numbering of the source. Values joined by “and” are separate entries in the source; they are usually repeats but may differ in a detail not shown here. Equal entries are not always repeated.

The target in one test is HRgpA-6H (Porphyromonas gingivalis) (UniProt P28784). Nature of the test: ELISA, Fab FASEBA supernatant on coated HRgpA-6H. Background: An ELISA detects its analyte on a solid surface through an enzyme-linked reagent.
UniProt P28784, sequence (P28784 228-991 limits assumed): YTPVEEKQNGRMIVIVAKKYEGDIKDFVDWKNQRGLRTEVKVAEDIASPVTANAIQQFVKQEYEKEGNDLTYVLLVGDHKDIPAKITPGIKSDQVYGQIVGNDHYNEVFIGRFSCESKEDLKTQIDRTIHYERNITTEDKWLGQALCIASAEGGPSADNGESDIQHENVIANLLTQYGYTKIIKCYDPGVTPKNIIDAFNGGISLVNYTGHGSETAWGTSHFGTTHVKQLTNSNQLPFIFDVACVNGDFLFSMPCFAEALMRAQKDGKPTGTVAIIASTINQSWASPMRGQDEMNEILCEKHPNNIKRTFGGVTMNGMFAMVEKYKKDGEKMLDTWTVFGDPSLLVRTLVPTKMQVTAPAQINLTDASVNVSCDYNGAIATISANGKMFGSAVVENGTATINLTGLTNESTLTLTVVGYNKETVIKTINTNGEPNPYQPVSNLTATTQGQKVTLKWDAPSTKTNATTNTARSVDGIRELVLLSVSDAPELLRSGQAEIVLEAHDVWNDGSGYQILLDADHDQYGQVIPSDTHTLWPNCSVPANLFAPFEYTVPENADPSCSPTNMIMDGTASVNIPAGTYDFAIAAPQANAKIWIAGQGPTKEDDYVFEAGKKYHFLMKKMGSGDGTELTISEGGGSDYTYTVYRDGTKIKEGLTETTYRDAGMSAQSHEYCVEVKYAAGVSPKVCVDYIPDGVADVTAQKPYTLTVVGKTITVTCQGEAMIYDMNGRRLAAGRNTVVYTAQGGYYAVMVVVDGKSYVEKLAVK
With B1, the OD450nm came out at 0.77 OD450nm and the Ratio OD(Variant)/OD(WT) was 0.838 ratio to WT.
Take B2: the OD450nm was 0.863 OD450nm and 0.884 OD450nm; the Ratio OD(Variant)/OD(WT) is 0.94 ratio to WT and 0.962 ratio to WT.
Take B3: the OD450nm amounted to 0.775 OD450nm and the Ratio OD(Variant)/OD(WT) is 0.982 ratio to WT.
On to B4, for which the OD450nm came to 0.8 OD450nm and the Ratio OD(Variant)/OD(WT) was 0.871 ratio to WT.
As to B5, the OD450nm came to 0.729 OD450nm and the Ratio OD(Variant)/OD(WT) was 0.833 ratio to WT.
B6: the OD450nm is 0.461 OD450nm and 0.428 OD450nm; the Ratio OD(Variant)/OD(WT) is 0.881 ratio to WT and 0.818 ratio to WT.
In the case of B7, the OD450nm was 0.849 OD450nm and the Ratio OD(Variant)/OD(WT) was 0.924 ratio to WT.
B8: the OD450nm was determined as 0.837 OD450nm and the Ratio OD(Variant)/OD(WT) was 0.911 ratio to WT.
Turning to B9, the OD450nm came out at 0.827 OD450nm and the Ratio OD(Variant)/OD(WT) was 0.9 ratio to WT.
On to B10, for which the OD450nm amounted to 0.893 OD450nm and the Ratio OD(Variant)/OD(WT) is 0.972 ratio to WT.
As to B11, the OD450nm was found to be 0.633 OD450nm and the Ratio OD(Variant)/OD(WT) is 0.802 ratio to WT.
With B12, the OD450nm was determined as 0.493 OD450nm and the Ratio OD(Variant)/OD(WT) is 0.942 ratio to WT.
In the case of B13, the OD450nm is 0.662 OD450nm and the Ratio OD(Variant)/OD(WT) was 0.839 ratio to WT.
Take B14: the OD450nm was 0.769 OD450nm and the Ratio OD(Variant)/OD(WT) is 0.975 ratio to WT.
As to B15, the OD450nm is 0.855 OD450nm and 0.82 OD450nm; the Ratio OD(Variant)/OD(WT) was 0.931 ratio to WT and 0.893 ratio to WT.
Regarding B16, the OD450nm worked out at 0.687 OD450nm and the Ratio OD(Variant)/OD(WT) is 0.871 ratio to WT.
In the case of B17, the OD450nm worked out at 0.836 OD450nm and the Ratio OD(Variant)/OD(WT) is 0.955 ratio to WT.
Take B18: the OD450nm was 0.9 OD450nm and 0.889 OD450nm; the Ratio OD(Variant)/OD(WT) is 0.98 ratio to WT and 0.968 ratio to WT.
As for B19, the OD450nm is 0.846 OD450nm and 0.817 OD450nm and 0.791 OD450nm; the Ratio OD(Variant)/OD(WT) was 0.921 ratio to WT and 0.889 ratio to WT and 0.861 ratio to WT.
In the case of B20, the OD450nm was 0.832 OD450nm and 0.838 OD450nm and 0.787 OD450nm; the Ratio OD(Variant)/OD(WT) was 0.951 ratio to WT and 0.958 ratio to WT and 0.899 ratio to WT.
Regarding B21, the OD450nm is 0.46 OD450nm and the Ratio OD(Variant)/OD(WT) is 0.879 ratio to WT.
B22: the OD450nm came out at 0.654 OD450nm and the Ratio OD(Variant)/OD(WT) is 0.829 ratio to WT.
In the case of B23, the OD450nm came out at 0.667 OD450nm and the Ratio OD(Variant)/OD(WT) was 0.845 ratio to WT.
For B24 the same measures were 0.871 OD450nm and 0.948 ratio to WT.
Turning to B25, the OD450nm was 0.804 OD450nm and 0.79 OD450nm; the Ratio OD(Variant)/OD(WT) is 0.875 ratio to WT and 0.86 ratio to WT.
On to B26, for which the OD450nm came to 0.739 OD450nm and the Ratio OD(Variant)/OD(WT) was 0.937 ratio to WT.
Regarding B27, the OD450nm is 0.83 OD450nm and 0.872 OD450nm; the Ratio OD(Variant)/OD(WT) was 0.904 ratio to WT and 0.949 ratio to WT.
Take B28: the OD450nm was 0.726 OD450nm and 0.722 OD450nm; the Ratio OD(Variant)/OD(WT) is 0.83 ratio to WT and 0.825 ratio to WT.
For B29, the OD450nm is 0.75 OD450nm and 0.756 OD450nm; the Ratio OD(Variant)/OD(WT) is 0.951 ratio to WT and 0.958 ratio to WT.

For another test the target is unchanged. Nature of the test: ELISA, Fab FASEBA supernatant on coated HRgpA-6H (0.0625 ug/ml).
With B30, the OD450nm stood at 0.784 and the Ratio OD(Variant)/OD(WT) is 0.948.
As for B31, the OD450nm worked out at 0.781 and the Ratio OD(Variant)/OD(WT) was 0.944.
Regarding B32, the OD450nm was 0.789 and the Ratio OD(Variant)/OD(WT) is 0.954.
The matching figures for B33: 0.789 and 0.954.
The matching figures for B34: 0.811 and 0.981.
With B35, the OD450nm was 0.788 and 0.806 and 0.73; the Ratio OD(Variant)/OD(WT) is 0.953 and 0.975 and 0.883.
On to B36, for which the OD450nm was determined as 0.664 and the Ratio OD(Variant)/OD(WT) turned out to be 0.803.
On to B37, for which the OD450nm is 0.823 and 0.767; the Ratio OD(Variant)/OD(WT) is 0.995 and 0.927.
